Laboratory results published in PMC5431095.

Key:
[1] = fluorescence microscopy, NuMA volume at spindle poles; details: control: DMSO
[2] = confocal microscopy of metaphase cells; details: glycan lost; control: wt NuMA-GFP in NuMA-depleted HeLa
[3] = Galectin-3 over NuMA fluorescence intensity; details: glycan lost; control: wt NuMA-GFP in NuMA-depleted HeLa

NuMA (Nuclear Mitotic Apparatus protein): swainsonine
localisation_or_trafficking ([1]; glycan changed form): no change

NuMA (Nuclear Mitotic Apparatus protein): GalNAcα-O-benzyl
localisation_or_trafficking ([1]; glycan lost): no change

NuMA (Nuclear Mitotic Apparatus protein): S1844A
localisation_or_trafficking [2]: changes | other: Galectin-3 recruitment to spindle poles [3]: decreases

NuMA (Nuclear Mitotic Apparatus protein): Ac-5SGlcNAc
localisation_or_trafficking ([1]; glycan lost): changes
